# Measurements reported in patent US20240342190A1, “METHODS FOR REDUCING ISCHEMIA-REPERFUSION INJURIES” (BioMimetix JV, LLC, priority 2023, published 2024).
# Test: Experiment 8: interaction of BMX-001 with t-PA (blood clot dissolution)
# Set-up: species or system rat
# Conditions: rat blood clots; 1 mg/ml t-PA with or without 50 μg/ml BMX-001; 37° C. for 30 minutes
# Protocol: Fresh arterial blood samples were collected from young male rats and distributed into 21 pre-weighed centrifuge tubes. After sitting at 37° C. for 3 hours, the blood clots were formed. The supernatant was removed from these tubes and then the tubes with blood clots were weighed. The weight of the blood clot was calculated (=the tube with blood clot-pre-weighed tube). Then, 1 ml saline, t-PA (1 mg/ml) or t-PA (1 mg/ml) plus BMX-001 (50 μg/ml) were added (n=7 for each group) and tubes placed in 37° C. dry incubator for 3 hours. The liquids were then removed from the tubes. The tubes with remaining blood clots were weighed again. The percentage of blood clot dissolved by t-PA was calculated.
molecule,measurement,value
"tissue plasminogen activator (protein, UniProt P00750 36-562, looked up, standard thrombolytic therapy) Tissue-type plasminogen …: SYQVICRDEKTQMIYQQHQSWLRPVLRSNRVEYCWCNSGRAQCHSVPVKSCSEPRCFNGGTCQQALYFSDFVCQCPEGFAGKCCEIDTRATCYEDQGISYRGTWSTAESGAECTNWNSSALAQKPYSGRRPDAIRLGLGNHNYCRNPDRDSKPWCYVFKAGKYSSEFCSTPACSEGNSDCYFGNGSAYRGTHSLTESGASCLPWNSMILIGKVYTAQNPSAQALGLGKHNYCRNPDGDAKPWCHVLKNRRLTWEYCDVPSCSTCGLRQYSQPQFRIKGGLFADIASHPWQAAIFAKHRRSPGERFLCGGILISSCWILSAAHCFQERFPPHHLTVILGRTYRVVPGEEEQKFEVEKYIVHKEFDDDTYDNDIALLQLKSDSSRCAQESSVVRTVCLPPADLQLPDWTECELSGYGKHEALSPFYSERLKEAHVRLYPSSRCTSQHLLNRTVTDNMLCAGDTRSGGPQANLHDACQGDSGGPLVCLNDGRMTLVGIISWGLGCGQKDVPGVYTKVTNYLDWIRDNMRP",Percentage of blood clot dissolved,44.77±25.77%
